# Target: T1, human HER-2 protein (soluble / recombinant, used in SPR) (human, UniProt P04626 23-652)
# T1 construct: also called immobilized HER2 protein; recombinant HER-2
# Experiment: SPR, human HER2 immobilised, Fab flown, 1:1 Langmuir model
# Description: Rate constants of association, dissociation (kₐ, kd) and the equilibrium dissociation constants (KD) were determined for anti-HER2 Fab molecules. Human HER2 protein (50 μg/mL) was immobilised on the SPR sensor chip and was exposed to five different concentrations of each Fab in 2- or 3-fold dilutions over the flow cells. 1:1 Langmuir model was used to derive the constants.
Binder,Kd [nM],koff [s⁻¹],kon [M⁻¹ s⁻¹]
"PFB5 Fab (Fab, V domains shown, Printed entries run through CL and CH1 (Fab chains); Label B5 tied to PFB5 by inference) VH: EVQLVQSGAEVKKPGSSVKVSCKASGGTFSSYAISWVRQAPGQGLEWMGGIIPIFGTANYAQKFQGRVTITADESTSTAYMELSSLRSEDTAVYYCARGRGSGYPDTWFWFDPWGQGTLVTVSS VL: not shown",112,0.02,176000
"PFC3 Fab (Fab, V domains shown, Printed entries run through CL and CH1 (Fab chains); Label C3 tied to PFC3 by inference) VH: QVQLVQSGGGLVQPGGSLRLSCAASGFTFSSYAMSWVRQAPGKGLEWVSGINWNGGSTGYADSVKGRFTISRDNSKNTLYLQMNSLRAEDTAVYYCAKGLVPAASMDVWGQGTTVTVSS VL: not shown",15.3,0.063,4.11e+06

# Target: T1, human HER-2 protein (soluble / …)
# Experiment: SPR, immobilized HER2 protein
row,Binder,koff [s⁻¹]
1,"PFA5 Fab (Fab, V domains shown, Printed entries run through CL and CH1 (Fab chains); Label A5 tied to PFA5 by inference) VH: QVQLVQSGAEVKKPGASVKVSCKASGYTFTSYAMHWVRQAPGQRLEWMGWINAGNGNTKYSQKFQGRVTITRDTSASTAYMELSSLRSEDTAVYYCARGGYLVGYWGQGTLVTVSS VL: not shown",0.00326
2,"PFB3 Fab (Fab, V domains shown, Printed entries run through CL and CH1 (Fab chains); Label B3 tied to PFB3 by inference) VH: QVQLQESGGGLVQPGGSLRLSCAASGFTFSSYAMSWVRQAPGKGLEWVSAISGSGGSTYYADSVKGRFTISRDNSKNTVYLQMNSLRAEDTAVYYCARTYYDFWSGRVGAFDIWGQGTTVTVSS VL: not shown",0.0102
3,"PFF2 Fab (Fab, V domains shown, Printed entries run through CL and CH1 (Fab chains); Label F2 tied to PFF2 by inference) VH: QMQLVQSGGGVVQPGRSLRLSCAASGFSFKNYGMHWVRQAPGKGLEWVAFISYDGTNKYYADSVKGRFTISRDNSKNTLYLQMNSLRAEDTAVYYCAKHYGDYYYYYGMDVWGQGTTVTVSS VL: not shown",0.0047
4,"PFA1 Fab (Fab, V domains shown, Entries are labelled light/heavy chain VD but as printed run through CL and CH1 (Fab chains); Label A1 tied to PFA1 by inference) VH: EVQLVQSGGGVVQPGRSLRLSCAASGFTFSSYGMHWVRQAPGKGLEWVAVISYDGSNKYYADSVKGRFTISRDNSKNTLFLQMNSLRAEDTAVYYCARDLFAVVGYYYYYGMDVWGQGTTVTVSS VL: EIVLTQSPFSLPVTPGEPASISCRSSQSLLHSNGFNYLDWYLQKPGQSPQLLIYLGSNRASGVPDRFSGSGSGTDFTLKISRVEAEDVGVYYCMQGLQTPYTFGQGTKLEIKR",0.00415
5,"PFB5 Fab (Fab, V domains shown, Printed entries run through CL and CH1 (Fab chains); Label B5 tied to PFB5 by inference) VH: EVQLVQSGAEVKKPGSSVKVSCKASGGTFSSYAISWVRQAPGQGLEWMGGIIPIFGTANYAQKFQGRVTITADESTSTAYMELSSLRSEDTAVYYCARGRGSGYPDTWFWFDPWGQGTLVTVSS VL: not shown",0.017
6,"PFG2 Fab (Fab, V domains shown, Printed entries run through CL and CH1 (Fab chains); Label G2 tied to PFG2 by inference) VH: EVQLVQSGGGLVQPGGSLRLSCAASGFTFSSYAMSWVRQAPGKGLEWVSSISSSSSYIYYADSVKGRFTISRDNAKNSLYLQMNSLRAEDTAVYYCARDGSAWSRPYWGQGTLVTVSS VL: EIVLTQSPATLSLSPGERATLSCRASQSVSSYLAWYQQKPGQAPRLLIYDASNRATGIPARFSGSGSGTDFTLTISSLEPEDFAVYYCQQRSNWPLTFGGGTKVEIKR",0.000499
7,"clone C5 Fab (P1C5, from the phage display Fab library) (Fab, V domains shown) VH: QVQLQESGPGLVKPSETLSLTCTVSGGSISSSSYYWGWIRQPPGKGLEWIGSIYYSGSTYYNPSLKSRVTISVDTSKNQFSLKLSSVTAADTAVYYCARYAPDSSGYLVAFDIWGQGTMVTVSS VL: QTVVTQEPSFSVSPGGTVTLTCGLSSGSVSTGYYPSWYQQTPGQAPRTLIYSTNSRSSGVPDRFSGSILGNKAALTITGAQADDESDYYCVLYMGSGISVFGGGTKLTVLG",0.00448
8,"PFD3 Fab (Fab, V domains shown, Printed entries run through CL and CH1 (Fab chains); Label D3 tied to PFD3 by inference) VH: EVQLVQSGAEVKKPGESLKISCKGSGYSFTSYWIGWVRQMPGKGLEWMGIIYPGDSDTRYSPSFQGQVTISADKSISTAYLQWSSLKASDTAMYYCARLGYGVPLPEYFDLWGRGTLVTVSS VL: QAVVIQEPSFSVSPGGTVTLTCALTSGSVSTSYYPSWYQQTPGQPPRTLIYSTNLRSSGVPDRFSGSILGNKAALTITGAQADDESDYYCELYMGSGISVFGGGTKVTVLG",0.0272
9,"clone E4 Fab (P1E4, from the phage display Fab library) (Fab, V domains shown) VH: QVQLQQWGAGLLKPSETLSLTCAVYGGSFSGYYWSWIRQPPGKGLEWIGEINHSGSTNYNPSLKSRVTISVDTSKNQFSLKLSSVTTADTAVYYCARMGINSGGYLYGMDVWGQGTTVTVSS VL: QTVVTQEPSFSVSPGGTVTLTCGLSSGSVSTSYYPSWYQQIPGQAPRTLIYTTNIRSSGVPDRFGGSILGNKAALTITGAQAEDESDYYCMLYMGSGIWVFGGGTKLTVLG",0.00181
10,"clone F1 Fab (P1F1, from the phage display Fab library) (Fab, V domains shown) VH: QVQLVESGPGLVKPSGTLSLTCAVSGGSISSSNWWSWVRQPPGKGLEWIGEIYHSGSTNYNPSLKSRVTISVDTSKNQFSLKLSSVTAADTAVYYCARMGANSGGYLYGMDVWGQGTTVTVSS VL: QTVVTQEPSFSVSPGGTVTLTCGLSSGSVSTSYYPSWYQQTPGQAPRTLIYSTNTRSSGVPDRFSGSILGNKAALTITGAQADDESDYYCVLYMGSGIWVFGGGTKLTVLG",0.00502
11,"PFD2 Fab (Fab, V domains shown, Printed entries run through CL and CH1 (Fab chains); Label D2 tied to PFD2 by inference) VH: QVQLQQWGAGLLKPSETLSLTCAVYGGSFSGYYWSWIRQPPGKGLEWIGEINHSGSTNYNPSLKSRVTISVDTSKNQFSLKLSSVTAADTAVYYCARGLPYYYFDYWGQGTLVTVSS VL: QSVVTQPPSVSGAPGQRVTISCTGRSANIGGFDVQWYRQLPGTAPQLLIYDNSNRPSGVPDRFSGSKSGTSATLAISGLQTGDEADYYCGTWDSYLNIWVFGGGTKLTVLS",0.00486
12,"clone A3 Fab (P1A3, from the phage display Fab library) (Fab, V domains shown) VH: EVQLVQSGTEVKKPGASVRVSCKSSGYTFTSYYIHWVRQAPGQGLEWMAIINPGNGDTNYAQRFQGRVTMTRDTSTSTVYMELRSLRSDDTAVYFCAREIASYSGSYYDYWGQGTLVTVSS VL: QAVVTQEPSLSVSPGGTVTLTCGLSSGSVSTGHYASWYQQTPGQAPRTLFYNTNTRSSGVPDRFSGSIVGNKAALTITGAQADDESDYYCVLYVGDGIWVFGGGTKLTVLG",0.00416
13,"PFE2 Fab (Fab, V domains shown, Printed entries run through CL and CH1 (Fab chains); Label E2 tied to PFE2 by inference) VH: EVQLVQSGGGVVQPGRSLRLSCAASGFTFSSYAMHWVRQAPGKGLEWVAVISYDESNKYYADSVKGRFTISRDNSKNTLYLQMNSLRAEDTAVYYCAREPSGSWSYLYYYYYGMDVWGQGTTVTVSS VL: DVVMTQSPLSLPVTPGEPASISCRSSQSLLRSDGYNFVDWYLQKAGQSPQLLIHLGSDRASGVPDRFSGSGSGTDFTLRISRVEAEDVGVYYCMQALQTPRTFGQGTKVEIKR",0.0187
14,"PFC3 Fab (Fab, V domains shown, Printed entries run through CL and CH1 (Fab chains); Label C3 tied to PFC3 by inference) VH: QVQLVQSGGGLVQPGGSLRLSCAASGFTFSSYAMSWVRQAPGKGLEWVSGINWNGGSTGYADSVKGRFTISRDNSKNTLYLQMNSLRAEDTAVYYCAKGLVPAASMDVWGQGTTVTVSS VL: not shown",0.0528
15,"PFG1 Fab (Fab, V domains shown, Printed entries run through CL and CH1 (Fab chains); Label G1 tied to PFG1 by inference) VH: EVQLVQSGGGVVQPGRSLRLSCAASGFTFSSYGMHWVRQAPGKGLEWVAVIWYDGSNKYYADSVKGRFTISRDNSKNTLYLQMNSLRAEDTAVYYCATMTTEDYWGQGTLVTVSS VL: QAVLTQPSSLSASPGASASLTCTLRSGINVGTYRIYWYQQKPGSPPQYLLRYKSDSDKQQGSGVPSRFSGSKDASANAGILLISGLQSEDEADYYCMIWHSSAWVFGGGTKLTVLG",0.000324
16,"PFB1 Fab (Fab, V domains shown, Printed entries run through CL and CH1 (Fab chains); Label B1 tied to PFB1 by inference) VH: QVQLQESGGGLVQPGGSLRLSCAASGFTFSSFAMNWVRQAPGKGLEWVSTIGGSGDSTFYADPVKGRFTVSRDNSKNTLYLQMNSLRAEDTAVYYCAQAYGSGGHYFFAYWGQGTLVTVSS VL: DVVMTQSPLSLPVTPGEPASISCRSSQSLLHSNGNTYLDWYLQKPGQSPQVLIYSGSNRASGVPDRFSGSGSGTDFTLKISRVEAEDVGVYYCMQGTHWPPTFGQGTKVEIKR",0.00565
17,"PFD1 Fab (Fab, V domains shown, Printed entries run through CL and CH1 (Fab chains); Label D1 tied to PFD1 by inference) VH: EVQLVQSGGGVVQPGRSLRLSCAASGFTFSSYGMHWVRQAPGKGLEWVAVISYDGSNKYYADSVKGRFTISRDNAKNSLYLQMNSLRAEDTAVYYCARSRGYSGYDNWGQGTLVTVSS VL: not shown",0.0714
18,"PFE5 Fab (Fab, V domains shown, Printed entries run through CL and CH1 (Fab chains); Label E5 tied to PFE5 by inference) VH: EVQLVQSGGGVVQPGRSLRLSCAASGFTFSSYAMHWVRQAPGKGLEWVAVISYDGSNKYYADSVKGRFTISRDNSKNTLYLQMNSLRAEDTAVYYCARSRGYYGMDVWGQGTTVTVSS VL: DIQMTQSPSSLSASVGDRVTITCRASQGISSWLAWYQQKPGKAPKLLIYAASSLQSGVPSRFSGSGSGTDFTLTISSLQPEDFATYYCQQANSFPPTFGPGTKVDIKR",0.00152
19,"PFG4 Fab (Fab, V domains shown, Printed entries run through CL and CH1 (Fab chains); Label G4 tied to PFG4 by inference) VH: QVQLQQSGAEVKKPGSSVKVSCKASGGTFSSYAISWVRQAPGQGLEWMGGIIPIFGTANYAQKFQGRVTITADKSTSTAYMELSSLRSEDTAVYYCARGADWNSDYWGQGTLVTVSS VL: QSVLTQPPSVSKALRQTATLTCTGNNNNVGFAGAAWFLQHQGHPPKLLAYRNNDRPSGISERFSASRSGNTASLTITGLQPEDEADYYCSAWDSSLKVQVFGGGTKLTVLG",0.00063
20,"PFA2 Fab (Fab, V domains shown, Printed entries run through CL and CH1 (Fab chains); Label A2 tied to PFA2 by inference) VH: QVQLQQSGPGLVKPSQTLSLTCAISGESVSSAAAAWNWIRQSPSRGLEWLGRTYYRSKWYSEYAVSVKSRITINGDTSKNQVSLHLNAVTPEDTAIYYCVRGSIFDVWGQGTMVTVSS VL: EIVLTQSPLSLPVTPGEPASISCRSSQSLLHSDGNKYLDWYLQKPGQSPQLLIYLGSNRASGVPERFSGSGSGTDFTLKISRVEAEDVGVYYCMLGTHWPPMYIFGQGTKLEIKR",0.00218
21,"PFB2 Fab (Fab, V domains shown, Printed entries run through CL and CH1 (Fab chains); Label B2 tied to PFB2 by inference) VH: EVQLVQSGAEVKKPGASVKVSCKASGYTFTSYGISWVRQAPGEGLEWMGWISAYNGNTNYAQKLQGRVTMTTDTSTSTAYMELRSLRSDDTAVYYCARDWGSSWSDYWGQGTLVTVSS VL: ETTLTQSPATLSLSPGERATLSCRASQSVRNNLAWYQHKPGQAPRLLIYYASTRATGIPDRFSGSGSGTDFTLTISRLEPEDFALYYCQHYGSSRTFGQGTKVEIKR",0.000177
22,"PFD4 Fab (Fab, V domains shown, Printed entries run through CL and CH1 (Fab chains); Label D4 tied to PFD4 by inference) VH: QVQLVQSGGGLVQPGGSLRLSCSASGFTFSSYAMHWVRQAPGKGLEYVSAISSNGGSTYYADSVKGRFTISRDNSKNTLYLQMSSLRAEDTAVYYCARSRGYYGMDVWGQGTTVTVSS VL: not shown",0.0342
23,"PFF3 Fab (Fab, V domains shown, Printed entries run through CL and CH1 (Fab chains); Label F3 tied to PFF3 by inference) VH: QVQLVQSGGGLVQPGGSLRLSCSASGFTFSSYAIHWVRQAPGKGLEYVSAISSNGGSTYYADSVKGRFTISRDNSKNTLYLQMNSLRAEDTAVYYCARVYGYGLHYYGMDVWGQGTTVTVSS VL: not shown",0.00324

# Reference: US20210139605A1 (AGENCY FOR SCIENCE TECHNOLOGY AND RESEARCH, published 2021)
